Measurements as given in the supplement of paper PMC12042874.
± gives the uncertainty stated by the source.

Experiment: amyloid nucleation score (Sup35N fusion, yeast selection) (log enrichment); library NNK2; higher = more nucleation; inactive = no reads after selection
Method in brief: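 Sup35N was fused to peptides of 20 random codons and expressed in psi-negative yeast, which were induced with 100 μM copper sulfate for 24 hours and then grown on medium lacking adenine and uracil for 7 days at 30°C. Plasmid inserts from input and output were sequenced on Illumina. The nucleation score is the DiMSum log enrichment of output over input reads, centred on the mode score of non-aggregating sequences. Sequences with under 100 input reads were left out, and random libraries had three technical output replicates.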

Substance	amyloid nucleation score
ITIQKIVEYISLNPEDT	5.878 ± 0.055
ITISII	0.044 ± 1.1
ITLASDFACLFGVIDYSWIV	0.143 ± 0.49
ITLGLQLCGFNCMTGLVRWS	-0.079 ± 0.76
ITTSSSWCATILSPQFFKDV	-0.569 ± 0.44
ITWNIVGGHFS	-0.412 ± 1.1
IVDRAFDRAFRCGTGFGTDI	inactive
IVILTC	0.464 ± 0.26
IVLCWLEGG	0.516 ± 0.31
IVLFVKVDLLIDLISPL	0.049 ± 0.56
IVLLAVI	0.539 ± 0.81
IVLLINRYMILMGEPNHA	0.17 ± 0.35
IVLLPWSCEM	1.26 ± 0.19
IVNCCSYLYTRIHNVGPAGN	6.383 ± 0.063
IVNSKFKHAGVHPFDSL	-0.125 ± 0.79
IVTTKWGNSHVSSVRIKARL	5.42 ± 0.084
IWILELFKY	4.07 ± 0.12
IWMRVVC	0.337 ± 0.8
IWQMLVMMKAWKMCPTLVRY	1.09 ± 0.41
IWQNVDCCPSWRLCVANHFM	6.778 ± 0.054
IWRFRGRRNRAWKF	-0.333 ± 0.62
IWSCRGQLGSSFTPSGNCTG	1.05 ± 0.37

Substance	amyloid nucleation score
IYAQAFFVYHTLFWGGGDQW	0.495 ± 0.16
IYFGMDASKIGLLYVVGYSG	0.067 ± 0.63
IYFYCGRCVSVFVHSFGMGL	4.21 ± 0.05
IYFYKSGESFRAYPFAPGQW	-1.37 ± 0.75
IYGLCERTFEA	0.977 ± 0.14
IYIMVTVF	0.086 ± 0.33
IYINYHREA	3.54 ± 0.052
IYKGTASIISCRWGWSVRHW	-0.573 ± 0.79
IYRSVTRKSERMCTVVGQVV	-0.279 ± 0.48
IYRTYYGINACLINLCMFDN	7.55 ± 0.078
IYRWPFVHPYMPLTRVAPDS	inactive
IYSISVLHCKGDLVYS	inactive
IYTNSISACDDVVGKNRVFA	-1.3 ± 1.1
IYWMIIFWGFE	-0.089 ± 1.1
IYYACL	6.401 ± 0.054
IYYGGYVNRLNREAFRGCKL	-1.49 ± 0.49
KAAVMRHMSCCCYYHP	0.845 ± 0.66
KAIGCAIKTFRYIYWIIWLL	inactive
KALQNSDGVGTRNLQTRHGY	1.75 ± 0.29
KARWLIFDDVFCCCKFGGWW	9.018 ± 0.053
KAYPFYTLHVGGRDRVIPDW	inactive
KCCILMLKA	0.745 ± 0.49

Substance	amyloid nucleation score
KCKRLVSKNIRL	-0.342 ± 1
KCLFES	0.144 ± 0.77
KCSTVYASGFWLPWTVVPGR	0.418 ± 0.26
KDGSPYKYLA	-0.554 ± 0.63
KDLEFSISLMKVPNIWWHYR	1.04 ± 0.17
KDLPTSYIYMFDY	-1.2 ± 0.78
KDNYNLNTGSSTISGHRWFA	inactive
KDSITAWCFVVLSVMTRVEY	-0.733 ± 1.1
KDYSGGIRHPVVPSGMISYL	-1.44 ± 1.1
KECVHHDHFYG	inactive
KEVCEKTMFMCSWVK	-0.809 ± 1.1
KFASVYWLGLFPLLMPTVVS	0.89 ± 0.43
KFCVRVYNYIVDRITSLMKT	3.22 ± 0.067
KFILCCLFPTYGREFCTSGL	8.921 ± 0.068
KFKDHVGLYKPMGSRKFLDW	-0.28 ± 0.28
KFLLGSVGTLQSNPTLFHLR	0.095 ± 0.33
KFMHRWPVYMVSTGLSLIVW	-0.458 ± 0.41
KFNILPKLWMDICMIYLAVY	-1.33 ± 0.49
KFSGRYWTGIEGVRISVCLH	-0.778 ± 0.56
KFSHQVEILPSGTSIGSCER	-0.111 ± 0.63
KFSKGSPGWWHQGSLCMVAM	1.51 ± 0.58
KFSLDF	-0.837 ± 0.53

Substance	amyloid nucleation score
KFTSCAVNNDIMLLLVRVGF	-1.61 ± 0.75
KFWDSDVGVGGHHV	inactive
KFWYYIFCGLCMCYDFSKRR	6.42 ± 0.084
KGAFANL	-1.63 ± 0.55
KGCVDHVFIYGIN	-1.44 ± 0.41
KGGNIHSRVTYR	-0.669 ± 0.37
KGLLCTHESMGVYRDSWPCY	-0.067 ± 0.49
KGQVLWTLGCMSIFVSMTNM	5.58 ± 0.078
KGSDSYLFIERWCLKMNISL	inactive
KGTYNDIMLRYACCMAGVKR	-0.053 ± 0.49
KGWWGVIRDYREWFTGSRWG	0.594 ± 0.47
KGYGIHFCFRCMDSRCGVS	0.97 ± 0.28
KHCQLLSVSAECDRPGLWKE	0.75 ± 0.17
KHLMMDCAKRMQLRNIRDES	0.216 ± 0.2
KITMDPGLVRIHNFGQTSLV	0.408 ± 0.62
KIVWCLVYNRDYYLQYRTIS	-0.625 ± 0.27
KIYSTSYDNNTSYISCVWSH	6.708 ± 0.029
KKAIFWWFWDHDSCL	inactive
KKNSAVHVYF	-1.01 ± 1.1
KKSHFLKRYNTAYVGRHLVH	-0.07 ± 0.53
